According to the supplement of paper PMC10065799, “High-throughput profiling of sequence recognition by tyrosine kinases and SH2 domains using bacterial peptide display” (eLife, 2023):

How the values were obtained:
AncSZ = test: phosphorylation enrichment, bacterial display (enrichment ratio); higher = better substrate or ligand; peptides without Tyr show the background
EPHB1 = EPHB1 (UniProt P54762); test: as above
EPHB2 = EPHB2 (UniProt P29323); test: as above
FGFR1 = FGFR1 (UniProt P11362); test: as above
FGFR3 = FGFR3 (UniProt P22607); test: as above
Chain of FGFR3 (P22607 whole entry, looked up): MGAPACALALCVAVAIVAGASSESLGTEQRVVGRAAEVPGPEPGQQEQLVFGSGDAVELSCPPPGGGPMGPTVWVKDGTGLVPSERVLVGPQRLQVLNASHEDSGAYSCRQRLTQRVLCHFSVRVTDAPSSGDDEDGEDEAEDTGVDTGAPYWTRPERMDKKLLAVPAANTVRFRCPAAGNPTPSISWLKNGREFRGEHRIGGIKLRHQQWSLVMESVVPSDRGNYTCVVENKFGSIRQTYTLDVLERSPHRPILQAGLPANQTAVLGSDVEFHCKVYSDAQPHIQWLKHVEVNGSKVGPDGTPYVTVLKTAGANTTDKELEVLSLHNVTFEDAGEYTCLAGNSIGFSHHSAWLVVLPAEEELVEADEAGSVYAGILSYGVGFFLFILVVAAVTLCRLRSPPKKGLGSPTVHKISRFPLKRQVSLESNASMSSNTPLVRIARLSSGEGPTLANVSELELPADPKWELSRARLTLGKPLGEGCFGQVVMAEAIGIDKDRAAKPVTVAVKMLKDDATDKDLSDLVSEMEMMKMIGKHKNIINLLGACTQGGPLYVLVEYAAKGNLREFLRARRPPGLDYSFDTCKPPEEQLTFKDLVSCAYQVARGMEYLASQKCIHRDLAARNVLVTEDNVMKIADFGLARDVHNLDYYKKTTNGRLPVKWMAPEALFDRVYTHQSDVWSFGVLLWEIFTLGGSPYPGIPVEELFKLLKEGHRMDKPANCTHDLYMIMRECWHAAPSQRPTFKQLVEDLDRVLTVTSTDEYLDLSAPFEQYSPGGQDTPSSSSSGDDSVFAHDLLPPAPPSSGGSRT

Fer (mouse) = test: as above
Fes = Fes (UniProt P07332); test: as above
Fyn = Fyn (UniProt P06241); test: as above
Hck = Hck (UniProt P08631); test: as above
Jak2 = Jak2 (UniProt O60674); test: as above
Chain of Jak2 (O60674 whole entry, looked up): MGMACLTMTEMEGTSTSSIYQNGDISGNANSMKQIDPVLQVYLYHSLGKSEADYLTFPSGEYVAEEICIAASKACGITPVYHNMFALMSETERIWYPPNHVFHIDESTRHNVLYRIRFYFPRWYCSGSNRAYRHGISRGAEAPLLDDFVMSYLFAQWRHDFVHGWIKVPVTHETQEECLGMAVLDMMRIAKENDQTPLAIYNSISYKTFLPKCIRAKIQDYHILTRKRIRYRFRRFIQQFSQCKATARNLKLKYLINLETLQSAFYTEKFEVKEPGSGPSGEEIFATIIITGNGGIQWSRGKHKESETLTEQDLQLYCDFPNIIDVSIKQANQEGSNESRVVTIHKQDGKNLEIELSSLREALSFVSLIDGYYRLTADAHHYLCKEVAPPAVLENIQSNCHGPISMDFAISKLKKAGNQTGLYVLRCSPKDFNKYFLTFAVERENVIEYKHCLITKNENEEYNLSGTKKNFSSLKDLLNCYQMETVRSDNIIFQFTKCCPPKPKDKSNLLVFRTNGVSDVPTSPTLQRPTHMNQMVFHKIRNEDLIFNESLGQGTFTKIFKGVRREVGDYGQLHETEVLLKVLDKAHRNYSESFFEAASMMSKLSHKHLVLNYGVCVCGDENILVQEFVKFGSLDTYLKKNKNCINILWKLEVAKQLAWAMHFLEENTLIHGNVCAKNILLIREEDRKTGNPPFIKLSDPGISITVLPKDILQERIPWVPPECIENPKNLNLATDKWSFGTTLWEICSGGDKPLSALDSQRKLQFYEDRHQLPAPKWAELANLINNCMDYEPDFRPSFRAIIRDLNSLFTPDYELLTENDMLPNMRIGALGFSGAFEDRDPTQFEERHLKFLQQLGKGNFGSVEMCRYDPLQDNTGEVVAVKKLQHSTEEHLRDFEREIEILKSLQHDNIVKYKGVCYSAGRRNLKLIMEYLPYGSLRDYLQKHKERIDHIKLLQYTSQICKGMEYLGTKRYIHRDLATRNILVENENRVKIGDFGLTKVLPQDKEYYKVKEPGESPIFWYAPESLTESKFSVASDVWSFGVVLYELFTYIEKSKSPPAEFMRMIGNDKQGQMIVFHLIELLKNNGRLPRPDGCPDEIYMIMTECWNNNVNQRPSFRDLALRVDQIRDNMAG

MERTK = MERTK (UniProt Q12866); test: as above
Chain of MERTK (Q12866 whole entry, looked up): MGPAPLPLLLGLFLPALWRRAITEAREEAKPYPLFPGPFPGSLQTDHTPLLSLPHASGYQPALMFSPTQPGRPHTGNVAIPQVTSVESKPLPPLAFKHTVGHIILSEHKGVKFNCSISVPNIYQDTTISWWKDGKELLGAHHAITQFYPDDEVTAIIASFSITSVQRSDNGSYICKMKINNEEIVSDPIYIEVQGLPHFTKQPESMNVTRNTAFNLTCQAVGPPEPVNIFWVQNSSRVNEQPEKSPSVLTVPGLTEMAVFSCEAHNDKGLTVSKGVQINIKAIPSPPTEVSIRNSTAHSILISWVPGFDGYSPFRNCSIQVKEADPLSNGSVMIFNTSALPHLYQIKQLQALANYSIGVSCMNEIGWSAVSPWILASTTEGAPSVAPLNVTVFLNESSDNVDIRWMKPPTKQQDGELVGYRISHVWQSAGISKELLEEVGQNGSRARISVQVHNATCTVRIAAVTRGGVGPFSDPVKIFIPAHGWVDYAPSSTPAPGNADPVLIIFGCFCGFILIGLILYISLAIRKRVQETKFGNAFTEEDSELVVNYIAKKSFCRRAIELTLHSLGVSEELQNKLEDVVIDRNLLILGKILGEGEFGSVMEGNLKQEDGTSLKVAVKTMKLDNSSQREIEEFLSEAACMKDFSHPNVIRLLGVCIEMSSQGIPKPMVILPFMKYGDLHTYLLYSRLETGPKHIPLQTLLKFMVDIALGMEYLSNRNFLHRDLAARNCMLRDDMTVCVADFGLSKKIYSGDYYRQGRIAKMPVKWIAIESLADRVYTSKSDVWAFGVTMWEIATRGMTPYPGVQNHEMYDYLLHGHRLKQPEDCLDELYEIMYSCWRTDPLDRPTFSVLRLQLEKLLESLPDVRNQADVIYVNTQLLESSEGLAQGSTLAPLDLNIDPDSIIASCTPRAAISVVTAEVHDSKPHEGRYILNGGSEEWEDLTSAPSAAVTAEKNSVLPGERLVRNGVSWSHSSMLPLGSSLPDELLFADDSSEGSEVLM

c-Abl (mouse) = test: as above
c-Src = test: as above
Grb2 SH2 = Grb2 SH2 (UniProt P62993); test: SH2 binding enrichment of the phosphorylated peptide, bacterial display (enrichment ratio); higher = better substrate or ligand; peptides without Tyr show the background
SHP2-C SH2 = test: as above
c-Src SH2 = test: as above
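Wherever SH2 binding enrichment of the phosphorylated peptide, bacterial display is given: peptide library displayed on the E. coli surface as eCPX fusions, selected cells deep-sequenced, score is each peptide's frequency after selection divided by its frequency in the input.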
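Wherever phosphorylation enrichment, bacterial display is given: 11-residue human phosphosite peptides and single-mutation variants displayed on the E. coli surface, counted by deep sequencing, each peptide's frequency after selection divided by its frequency in the unselected input library; frequency after pTyr selection over input frequency; kinase dosed for 20-30% of maximal phosphorylation in three min.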

Chain of EPHB1 (P54762 whole entry, looked up): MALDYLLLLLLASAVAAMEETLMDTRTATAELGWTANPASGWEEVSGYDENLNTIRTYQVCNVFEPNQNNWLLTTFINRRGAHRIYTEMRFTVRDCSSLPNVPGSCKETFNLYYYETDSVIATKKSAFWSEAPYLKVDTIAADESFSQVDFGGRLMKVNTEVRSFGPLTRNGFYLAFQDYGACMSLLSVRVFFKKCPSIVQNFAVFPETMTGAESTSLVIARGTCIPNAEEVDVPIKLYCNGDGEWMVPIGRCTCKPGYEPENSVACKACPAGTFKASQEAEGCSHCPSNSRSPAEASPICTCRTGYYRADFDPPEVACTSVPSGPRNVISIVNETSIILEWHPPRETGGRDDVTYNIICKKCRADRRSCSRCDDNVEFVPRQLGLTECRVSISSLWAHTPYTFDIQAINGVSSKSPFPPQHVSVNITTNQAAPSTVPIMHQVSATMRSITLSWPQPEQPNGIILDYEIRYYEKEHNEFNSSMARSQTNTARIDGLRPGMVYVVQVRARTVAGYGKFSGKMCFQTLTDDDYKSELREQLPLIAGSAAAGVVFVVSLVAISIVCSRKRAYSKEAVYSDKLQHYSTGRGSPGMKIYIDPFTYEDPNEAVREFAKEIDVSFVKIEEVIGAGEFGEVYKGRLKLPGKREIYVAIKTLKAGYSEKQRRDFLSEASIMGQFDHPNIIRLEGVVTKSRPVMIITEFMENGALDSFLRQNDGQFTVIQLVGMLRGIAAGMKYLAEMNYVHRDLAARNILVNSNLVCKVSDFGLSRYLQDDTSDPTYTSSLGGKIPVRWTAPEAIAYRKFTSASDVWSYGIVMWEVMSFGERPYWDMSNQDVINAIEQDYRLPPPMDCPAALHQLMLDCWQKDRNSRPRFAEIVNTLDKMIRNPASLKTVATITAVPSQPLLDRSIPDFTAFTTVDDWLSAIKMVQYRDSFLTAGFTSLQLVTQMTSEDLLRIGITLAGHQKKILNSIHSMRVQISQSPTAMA
Chain of EPHB2 (P29323 whole entry, looked up): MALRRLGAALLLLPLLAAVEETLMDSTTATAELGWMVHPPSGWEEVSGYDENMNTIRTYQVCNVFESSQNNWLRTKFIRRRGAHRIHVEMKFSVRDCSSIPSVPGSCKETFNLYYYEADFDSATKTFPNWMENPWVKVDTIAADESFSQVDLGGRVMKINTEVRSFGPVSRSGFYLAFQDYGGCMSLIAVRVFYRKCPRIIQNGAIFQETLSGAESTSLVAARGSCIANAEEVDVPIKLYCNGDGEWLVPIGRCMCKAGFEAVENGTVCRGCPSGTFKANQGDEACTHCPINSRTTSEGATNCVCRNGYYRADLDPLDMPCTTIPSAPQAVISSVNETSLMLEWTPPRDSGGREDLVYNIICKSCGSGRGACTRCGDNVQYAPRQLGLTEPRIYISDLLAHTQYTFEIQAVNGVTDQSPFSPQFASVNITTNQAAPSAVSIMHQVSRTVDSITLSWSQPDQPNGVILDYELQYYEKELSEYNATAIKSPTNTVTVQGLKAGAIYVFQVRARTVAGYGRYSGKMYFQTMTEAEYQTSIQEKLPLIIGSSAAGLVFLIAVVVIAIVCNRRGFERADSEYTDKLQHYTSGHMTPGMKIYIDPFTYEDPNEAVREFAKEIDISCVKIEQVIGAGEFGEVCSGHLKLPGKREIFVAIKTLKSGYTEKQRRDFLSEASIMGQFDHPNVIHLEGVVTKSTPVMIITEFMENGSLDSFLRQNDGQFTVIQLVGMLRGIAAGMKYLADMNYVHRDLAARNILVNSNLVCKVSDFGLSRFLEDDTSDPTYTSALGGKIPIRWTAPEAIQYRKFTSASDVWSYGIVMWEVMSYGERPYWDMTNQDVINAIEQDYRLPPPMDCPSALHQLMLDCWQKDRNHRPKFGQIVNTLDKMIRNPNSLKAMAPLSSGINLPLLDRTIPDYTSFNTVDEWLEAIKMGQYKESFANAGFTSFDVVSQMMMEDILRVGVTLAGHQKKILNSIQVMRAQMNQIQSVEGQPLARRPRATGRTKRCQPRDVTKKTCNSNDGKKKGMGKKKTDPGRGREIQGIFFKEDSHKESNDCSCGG

Sequence	phosphorylation enrichment (AncSZ)	phosphorylation enrichment (EPHB1)	phosphorylation enrichment (EPHB2)	phosphorylation enrichment (FGFR1)	phosphorylation enrichment (FGFR3)	phosphorylation enrichment (Fer (mouse))	phosphorylation enrichment (Fes)	phosphorylation enrichment (Fyn)	phosphorylation enrichment (Hck)	phosphorylation enrichment (Jak2)	phosphorylation enrichment (MERTK)	phosphorylation enrichment (c-Abl (mouse))	phosphorylation enrichment (c-Src)	SH2 binding enrichment (Grb2 SH2)	SH2 binding enrichment (SHP2-C SH2)	SH2 binding enrichment (c-Src SH2)
DVYVSYDYGKS [SORL1_Y139]	1.45	2.95	5.62	6.8	4.03	2.42	0.98	7.46	4.33	0.795	4.1	1.03	5.25	0.741	1	0.924
EAEALYQTKFQ [KRT73_Y325]	1.33	0.58	0.645	0.534	0.687	0.964	1.19	1.32	2.65	0.976	0.569	0.85	1.44	0.707	0.609	0.348
EAMPDYKKQLR [SPATA18_Y229_S227P]	0.608	0.378	0.394	0.399	0.444	0.474	0.819	0.309	0.296	0.623	0.322	0.469	0.378	0.835	0.649	0.406
EAVKNYTEKRG [PBRM1_Y672_D674E]	0.626	0.318	0.344	0.394	0.449	0.564	0.514	0.328	0.388	0.478	0.384	0.433	0.335	1.01	0.612	0.446
EAVSIYQFFGQ [CBLC_Y402_H405Y_YF]	1.74	11.2	5.73	3.15	2.67	8.72	1.36	7.8	7.12	1.34	9.29	6.44	6.58	0.921	0.881	0.654
ECKLLYSRKEG [PTPN11_Y263]	0.855	0.436	0.513	0.487	0.554	0.465	0.754	0.446	0.564	0.647	0.483	0.77	0.425	1.02	1.09	0.616
EEGEEYGGGGG [TUBA1A_Y451]	1.19	0.638	0.769	0.604	0.701	0.552	1.32	0.557	0.602	0.946	0.485	0.815	0.531	0.97	0.744	0.6
EEGESDVCSSD [DCX_Y125_Y125D]	1.04	0.525	0.507	0.497	0.544	0.479	0.939	0.505	0.457	0.797	0.495	0.621	0.518	0.922	0.924	0.699
EEGNPYYSSAR [MCCC2_Y520]	1.09	0.499	0.473	0.468	0.647	0.528	0.845	0.793	1.18	0.848	0.422	0.679	1.99	0.818	0.674	2.06
EEGNPYYSSTR [MCCC2_Y520_A524T]	1.1	0.595	0.531	0.672	0.74	0.722	1.1	0.921	1.25	0.693	0.428	0.67	1.44	0.82	1.15	1.22
EEKKKYYDAKI [CASP5_Y103_T106A]	0.626	0.467	0.432	0.529	0.518	0.447	0.764	0.371	0.411	0.848	0.429	0.565	0.396	1.28	1.02	0.521
EFKDAYKFAAD [BRDT_Y335_YF]	0.647	0.367	0.491	0.414	0.524	0.408	0.731	0.414	0.429	0.638	0.492	0.459	0.447	0.7	0.779	0.459
EFKDAYTFAAD [BRDT_Y335_K336T_YF]	1.09	0.452	0.519	0.508	0.606	0.477	0.959	0.63	0.57	0.835	0.456	0.647	1.36	0.813	0.713	0.703
EFKKHYGYSLY [ANXA3_Y295]	0.531	0.367	0.39	0.471	0.38	0.353	0.611	0.433	0.727	0.555	0.401	0.541	0.598	1.31	1.51	1.57
EGDGVYTLNNE [HP_Y125]	1.26	0.602	0.633	0.595	0.822	0.658	1.16	6.33	3.07	0.934	0.509	0.817	4.26	0.828	0.709	0.403
EGNEQYEGYCV [GRIA3_Y451_R450Q]	1.19	0.556	0.592	0.557	0.691	1.11	1.05	0.567	0.604	0.942	0.422	1.26	0.506	1.01	0.768	1.23
